{"source": "patent US20250361295A1", "about": "(published 2025)", "binders": {"B1": {"name": "ch8-B3-F6-H8 (antibody, V domains shown)", "VH": "EVKVIESGGGLVQPGGSLKLSCAASGFDFSRYWMSWVRQAPGKGLEWIGEINPDSSAINYTPSLKDKFIISRDNAKNTLYLQMSKVRSEDTALYYCATSMTMDYWGQGTSVTVSS", "VL": "DIVMTQSPSSMYASLGERVTITCKASQDIKSYLSWYQQKPWKSPKTLIYYATSLADGVPSRFSGSGSGQDYSLTISSLESDDTATYYCLQHGESPYTFGGGTKLEK"}, "B2": {"name": "h8-B3-F6-H8 (antibody, V domains shown)", "VH": "EVQLVESGGGLVQPGGSLRLSCAASGFDFSRYWMSWVRQAPGKGLVWIGEINPESSAINYAPSLKDRFTISRDNAKNTLYLQMNSLRAEDTAVYYCATSMTMDYWGQGTLVTVSS", "VL": "DIQMTQSPSSLSASVGDRVTITCKASQDIKSYLSWYQQKPGKAPKTLIYYATSLAGGVPSRFSGSGSGTDYTLTISSLQPEDFATYYCLQHGESPYTFGGGTKLEIK"}, "B3": {"name": "NGM831 (antibody, V domains shown)", "VH": "EVQLQQSGPEVKPGASVKISCKASGYTFTDYNMDWVKQSHGKSEWIGYIYPSNGGTGYNQKFKSKATLTVDKSSNTAYMELHSLTSEDSAVYYCARVPYYDYLYYYAMDYWGQGTSVTVSS", "VL": "QIVLSQSPAILSASPGEKVTMACRASSSVSFMHWYQQKPGSSPQPWIYATSNLASGVPARFSGSGSGTSYSLTISRVEAEDAATYYCQQWSTNPYMYTFGGGTKLEIK"}, "B4": {"name": "ch2-H1-D7-E5-D5 (antibody, V domains shown)", "VH": "EVHLVESGGGLVQPGGSRKLSCAASGFTFSSFGMHWVRQPPEKGLEWVAYISSGSSSIYYADTVKGRFTISRDNPKNTLFLQMTSLRSEDTAMYYCARGTGTGAMDYWGQGTSVTVSS", "VL": "DIQMTQTTSSLSASLGDRVTISCRTSQDISNYLNWYQQKPDGTVKLLIYYTSKLHSGVPSRFSGSGSGTDYSLTISNLDQEDIATYFCQQGNTLPWTFGGGTKLEIK"}, "B5": {"name": "h2-H1-D7-E5-D5 (antibody, V domains shown)", "VH": "EVQLVESGGGLVQPGGSLRLSCAASGFTFSSFGMHWVRQAPGKGLEWVAYISSGSSSIYYADTVKGRFTISRDNAKNSLYLQMNSLRAEDTAVYYCARGTGTGAMDYWGQGTLVTVSS", "VL": "DIQMTQSPSSLSASVGDRVTITCRTSQDISNYLNWYQQKPGKAPKLLIYYTSKLHSGVPSRFSGSGSGTDFTFTISSLQPEDIATYFCQQGNTLPWTFGGGTKLEIK"}, "B6": {"name": "IO-202 (antibody, V domains shown)", "VH": "EVQLLESGGGLVQPGGSLRLSCAASGIDFSNHYYMYWVRQAPGKGLEWIGSIFSGDSASTYYADSAKGRFTISRDNSKNTLYLQMNSLRAEDTAVYYCARGMSTNDWASDLWGQGTLVTVSS", "VL": "DIQMTQSPSSLSASVGDRVTITCQASESINSIYLAWYQQKPGKAPKLLIYRASTLASGVPSRFSGSGSGTDFTLTISSLQPEDFATYYCQQSYDWGDVENTFGGGTKVEIK"}}, "key": {"human LILRB4 [1]": {"molecular_target": "T1, human LILRB4 (human, UniProt Q8NHJ6 22-448)", "T1 sequence (Q8NHJ6 22-448)": "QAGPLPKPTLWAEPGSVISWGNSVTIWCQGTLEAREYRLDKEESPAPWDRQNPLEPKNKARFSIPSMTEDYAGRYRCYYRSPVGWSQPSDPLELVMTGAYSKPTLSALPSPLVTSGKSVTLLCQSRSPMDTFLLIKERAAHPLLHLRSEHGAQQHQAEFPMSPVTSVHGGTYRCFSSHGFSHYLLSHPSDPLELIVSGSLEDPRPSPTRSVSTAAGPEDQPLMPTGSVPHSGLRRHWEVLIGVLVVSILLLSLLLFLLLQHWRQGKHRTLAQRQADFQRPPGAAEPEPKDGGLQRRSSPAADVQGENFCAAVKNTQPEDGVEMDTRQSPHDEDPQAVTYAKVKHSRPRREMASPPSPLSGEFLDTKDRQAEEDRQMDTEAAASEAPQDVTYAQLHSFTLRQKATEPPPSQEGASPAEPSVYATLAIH", "test": "FACS"}, "human LILRB4 [2]": {"molecular_target": "T1, human LILRB4", "test": "ELISA; panel B"}, "human LILRB4 [3]": {"molecular_target": "T1, human LILRB4", "test": "competitive FACS; competition with h2-H1-D7-E5-D5"}, "human LILRB4 [4]": {"molecular_target": "T1, human LILRB4", "test": "ELISA; panel A"}, "human LILRB4 [5]": {"molecular_target": "T1, human LILRB4", "test": "competitive FACS; competition with NGM831"}}, "data": [{"binder": "B1", "values": [{"measurement": "EC50", "setting": "human LILRB4 [1]", "result": 1.49, "unit": "nM"}, {"measurement": "EC50", "setting": "human LILRB4 [2]", "result": 0.0317, "unit": "nM"}]}, {"binder": "B2", "values": [{"measurement": "EC50", "setting": "human LILRB4 [2]", "result": 0.0286, "unit": "nM"}, {"measurement": "EC50", "setting": "human LILRB4 [3]", "result": 6.33, "unit": "nM"}]}, {"binder": "B3", "values": [{"measurement": "EC50", "setting": "human LILRB4 [4]", "result": 0.0372, "unit": "nM"}, {"measurement": "EC50", "setting": "human LILRB4 [1]", "result": 0.849, "unit": "nM"}, {"measurement": "EC50", "setting": "human LILRB4 [2]", "result": 0.0265, "unit": "nM"}, {"measurement": "EC50", "setting": "human LILRB4 [5]", "result": 3.67, "unit": "nM"}]}, {"binder": "B4", "values": [{"measurement": "EC50", "setting": "human LILRB4 [4]", "result": 1.12, "unit": "nM"}]}, {"binder": "B5", "values": [{"measurement": "EC50", "setting": "human LILRB4 [4]", "result": 7.96, "unit": "nM"}]}, {"binder": "B6", "values": [{"measurement": "EC50", "setting": "human LILRB4 [4]", "result": 0.0172, "unit": "nM"}, {"measurement": "EC50", "setting": "human LILRB4 [2]", "result": 0.0141, "unit": "nM"}]}]}
